Source: patent US12226490B2, “Anti-ROR1 antibody conjugates, compositions comprising anti ROR1 antibody conjugates, and methods of making and using anti-ROR1 antibody conjugates preliminary class” (Sutro Biopharma, Inc., priority 2022, dated 2025)

Key:
[1] = target: T1, human ROR1-Fz (Homo sapiens, UniProt Q01973); experiment: Biacore off-rate and kinetic analysis, ROR1 frizzled domain; assay type: binding; settings: for kd1 / ka1: Sample ROR1 Fz, SPR; for ka1: 1-1 Langmuir; for Biacore human ROR1-Fz ka / Biacore human ROR1-Fz kd: Table 11 (SP34 light chain)
T1 construct: Frizzled (Fz, residues 165-305); HIS6 (C); purchased Acro Biosystems; host or cells: HEK293
Experimental: Anti-Fc polyclonal antibodies were immobilized onto a CM5 chip (GE Life Sciences) using amine coupling chemistry (from Amine Coupling Kit, GE Life Sciences). The immobilization steps were carried out at a flow rate of 25 μL/min in 1×HBS-EP+ buffer (GE Life Sciences; 10× Stock diluted before use). The sensor surfaces were activated for 7 min with a mixture of NHS (0.05 M) and EDC (0.2 M). The Anti-Fc antibodies were injected over all 4 flow cells at a concentration of 25 ug/ml in 10 mM sodium acetate, pH 4.5, for 7 min. Ethanolamine (1 M, pH 8.5) was injected for 7 min to block any remaining activated groups. An average of 12,000 response units (RU) of capture antibody was immobilized on each flow cell.
Off-rate and kinetic binding experiments were performed at 25° C. using 1×HBS-EP+ buffer. Test and control antibodies were injected over the anti-Fc surface at concentrations of 5-10 μg/mL for 12 seconds at a flow rate of 10 μL/min on flow cells 2, 3 and 4, followed by a buffer wash for 30 seconds at the same flow rate. Kinetic characterization of antibody samples was carried out with a range of antigen concentrations from 1-100 nM and 1 injection of 0 nM antigen (for example, 100, 50, 25, 6.25, 1.56 and 0 nM). After capturing ligand (antibody) on the anti-Fc surface, the analyte (hROR1, Fz or Kr domains, Acro Biosystems, Delaware) was bound for 180 seconds, followed by a 600 second dissociation phase at a flow rate of 50 μL/min. Between each ligand capture and analyte binding cycle, regeneration was carried out using 2 injections of 10 mM Glycine pH 2.0 for 30 seconds at 30 μL/min, followed by a 30 second buffer wash step.
The data was fit with the Biacore T200 Evaluation software, using a 1-1 Langmuir binding model. KD (affinity, nM) was determined as a ratio of the kinetic rate constants calculated from the fits of the association and dissociation phases.
For anti-CD3-LC-containing IgGs that had detectable ROR1-binding in ELISA (1944-A07 and 1987-C05 variants), those antibodies were further tested for binding by surface plasmon resonance (SPR). Binding kinetics were assessed to the ROR1-frizzled domain (hROR1-Fz) or the ROR1-extracellular domain (hROR1) for 1944-A07 and 1987-C05 variants, respectively. Briefly, anti-ROR1 antibodies were captured via anti-human Fc polyclonal antibodies immobilized to a CM5 chip, and ROR1 recombinant proteins were flowed across the surface to assess binding kinetics. hROR1 or hROR1-Fz domain (Acro Biosystems, Delaware) binding was tested at 100, 50, 25, 6.25, 1.5625 nM. The data was fit with the Biacore™ T200 Evaluation software, using a 1-1 Langmuir binding model. KD (affinity, nM) was determined as a ratio of the kinetic rate constants calculated from the fits of the association and dissociation phases.

[2] = Differential scanning fluorimetry (protein thermal shift; TM1 Fc, TM2 Fab); assay type: physicochemical; settings: melting temperature of the Fab domain; Table 11
Experimental: A protein thermal shift assay was carried out by mixing the protein to be assayed with an environmentally sensitive dye (SYPRO Orange, Life Technologies Cat #S-6650) in a phosphate buffered solution (PBS), and monitoring the fluorescence of the mixture in real time as it underwent controlled thermal denaturation. Protein solutions between 0.2-2 mg/mL were mixed at a 1-1 volumetric ratio with a 1-500 PBS-diluted solution of SYPRO Orange (SYPRO Orange stock dye is 5000× in DMSO). 10 μL aliquots of the protein-dye mixture were dispensed in quadruplicate in a 384-well microplate (Bio-Rad Cat #MSP-3852), and the plate was sealed with an optically clear sealing film (Bio-Rad Cat #MSB-1001) and placed in a 384-well plate real-time thermocycler (Bio-Rad CFX384 Real Time System). The protein-dye mixture was heated from 25° C. to 95° C., at increments of 0.1° C. per cycle (˜1.5° C. per minute), allowing 3 seconds of equilibration at each temperature before taking a fluorescence measurement. At the end of the experiment, the transition melting temperatures (TM1 and TM2) were determined using the Bio-Rad CFX manager software. TM1 represents the melting temperature of the Fc domain. TM2 represents the melting temperature of the Fab domain.
For the thermal stability of an antibody, the first melting peak (Tm1) coincides with the unfolding of the CH2 domain (FC stability), while the second melting peak (Tm2) occurs upon unfolding of the Fab domain.

T1 sequence (Q01973 165-305): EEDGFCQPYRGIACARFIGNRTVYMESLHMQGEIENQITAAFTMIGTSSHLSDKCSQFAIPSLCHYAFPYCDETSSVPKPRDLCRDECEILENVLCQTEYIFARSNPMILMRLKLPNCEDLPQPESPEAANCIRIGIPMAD

Row | kd1 [1] | ka1 [1] | Biacore human ROR1-Fz ka [1] | Biacore human ROR1-Fz kd [1] | Molecule | TM2 [2]
1 | 0.119 s⁻¹ | 1.85e+06 M⁻¹ s⁻¹ | – | – | 1944-A07 HC w/hUCHT1 LC3: HC of lead antibody 1944-A07 co-expressed with LC "derived from anti-CD3 antibodies": hUCHT1-LC3 (antibody, V domains shown) VH: EVQLVESGGGLVQPGGSLRLSCAASGFNITGYYIHWVRQAPGKGLEWVGYISPNSGSTYYADSVKGRFTISADTSKNTAYLQMNSLRAEDTAVYYCARDSRRYVRPFDYWGQGTLVTVSS VL: DIQMTQSPSTLSASVGDRVTITCRASQDIRNYLNWYQQKPGKAPKLLIYYTSRLHSGVPSRFSGSGSGTEYTLTISSLQPDDFATYYCQQGNTLPWTFGGGTKVEIK | –
2 | – | – | 183000 M⁻¹ s⁻¹ | 0.00078 s⁻¹ | SRP2196-A08 (antibody, V domains shown) VH: EVQLVESGGGLVQPGGSLRLSCAASGFNITGYYIHWVRQAPGKGLEWVGYISPNSGSTYKADSVKGRFTISADTSRNTAYLQMNSLRAEDTAVYYCARDSRRYVRSWDYWGQGTLVTVSS VL: QAVVTQESALTTSPGETVTLTCRSSTGAVTTSNYANWVQEKPDHLFTGLIGGTNKRAPGVPARFSGSLIGDKAALTITGAQTEDEAIYFCALWYSNLWVFGGGTKLTVL | 69 °C
3 | – | – | 169000 M⁻¹ s⁻¹ | 0.000275 s⁻¹ | SRP2196-A03 (antibody, V domains shown) VH: EVQLVESGGGLVQPGGSLRLSCAASGFNITQYHIHWVRQAPGKGLEWVGYISPNSGSTHEADSVKGRFTISADTSKNTAYLQMNSLRAEDTAVYYCARDSRRYVRGWDYWGQGTLVTVSS VL: QAVVTQESALTTSPGETVTLTCRSSTGAVTTSNYANWVQEKPDHLFTGLIGGTNKRAPGVPARFSGSLIGDKAALTITGAQTEDEAIYFCALWYSNLWVFGGGTKLTVL | 70 °C
4 | – | – | 139000 M⁻¹ s⁻¹ | 0.000343 s⁻¹ | SRP2196-A04 (antibody, V domains shown) VH: EVQLVESGGGLVQPGGSLRLSCAASGFNISPYYIHWVRQAPGKGLEWVGQIYPISGHTYQADSVKGRFTISADTSKNTAYLQMNSLRAEDTAVYYCARESRRYVGPFGYWGQGTLVTVSS VL: QAVVTQESALTTSPGETVTLTCRSSTGAVTTSNYANWVQEKPDHLFTGLIGGTNKRAPGVPARFSGSLIGDKAALTITGAQTEDEAIYFCALWYSNLWVFGGGTKLTVL | –
5 | – | – | – | – | SRP2196-A02 (antibody, V domains shown) VH: EVQLVESGGGLVQPGGSLRLSCAASGFNITGYYIHWVRQAPGKGLEWVGQISPNSGATHDADSVKGRFTISADTSKNTAYLQMNSLRAEDTAVYYCARDSRRYVRGWDYWGQGTLVTVSS VL: QAVVTQESALTTSPGETVTLTCRSSTGAVTTSNYANWVQEKPDHLFTGLIGGTNKRAPGVPARFSGSLIGDKAALTITGAQTEDEAIYFCALWYSNLWVFGGGTKLTVL | 71 °C
6 | – | – | 186000 M⁻¹ s⁻¹ | 0.00064 s⁻¹ | SRP2196-A07 (antibody, V domains shown) VH: EVQLVESGGGLVQPGGSLRLSCAASGFNITGYYIHWVRQAPGKGLEWVGQISPNSGSTYYADSVKGRFTISADTSKNTAYLQMSSLRAEDTAVYYCARDSRRYVRGWDYWGQGTLVTVSS VL: QAVVTQESALTTSPGETVTLTCRSSTGAVTTSNYANWVQEKPDHLFTGLIGGTNKRAPGVPARFSGSLIGDKAALTITGAQTEDEAIYFCALWYSNLWVFGGGTKLTVL | 74 °C
7 | – | – | 597000 M⁻¹ s⁻¹ | 0.0085 s⁻¹ | SRP1944-A07 w SP34 LC3 (antibody, V domains shown) VH: EVQLVESGGGLVQPGGSLRLSCAASGFNITGYYIHWVRQAPGKGLEWVGYISPNSGSTYYADSVKGRFTISADTSKNTAYLQMNSLRAEDTAVYYCARDSRRYVRPFDYWGQGTLVTVSS VL: QTVVTQEPSLTVSPGGTVTLTCGSSTGAVTSGYYPNWFQQKPGQAPRGLIGGTKFLAPGTPARFSGSLLGGKAALTLSGVQPEDEAEYYCALWYSNRWVFGGGTQLTVTG | –
8 | – | – | – | – | SRP2196-A01 (antibody, V domains shown) VH: EVQLVESGGGLVQPGGSLRLSCAASGFNITGYYIHWVRQAPGKGLEWVGQISPNSGYTYYADSVKGRFTISADTSKNTAYLQMNSLRAEDTAVYYCARDSRRYVRGWDYWGQGTLVTVSS VL: QAVVTQESALTTSPGETVTLTCRSSTGAVTTSNYANWVQEKPDHLFTGLIGGTNKRAPGVPARFSGSLIGDKAALTITGAQTEDEAIYFCALWYSNLWVFGGGTKLTVL | 74 °C
9 | 0.00228 s⁻¹ | 360000 M⁻¹ s⁻¹ | – | – | 1944-A07 HC w/hSP34 LC3: HC of lead antibody 1944-A07 co-expressed with LC "derived from anti-CD3 antibodies": hSP34-LC3 (antibody, V domains shown) VH: EVQLVESGGGLVQPGGSLRLSCAASGFNITGYYIHWVRQAPGKGLEWVGYISPNSGSTYYADSVKGRFTISADTSKNTAYLQMNSLRAEDTAVYYCARDSRRYVRPFDYWGQGTLVTVSS VL: QTVVTQEPSLTVSPGGTVTLTCGSSTGAVTSGYYPNWFQQKPGQAPRGLIGGTKFLAPGTPARFSGSLLGGKAALTLSGVQPEDEAEYYCALWYSNRWVFGGGTQLTVTG | –
10 | – | – | 175000 M⁻¹ s⁻¹ | 0.000682 s⁻¹ | SRP2196-A05 (antibody, V domains shown) VH: EVQLVESGGGLVQPGGSLRLSCAASGFNITNYYIHWVRQAPGKGLEWVGYISPNSGATYQADSVKGRFTISADTSKNTAYLQMNSLRAEDTAVYYCARDSRRYVRSWDYWGQGTLVTVSS VL: QAVVTQESALTTSPGETVTLTCRSSTGAVTTSNYANWVQEKPDHLFTGLIGGTNKRAPGVPARFSGSLIGDKAALTITGAQTEDEAIYFCALWYSNLWVFGGGTKLTVL | 71 °C
11 | – | – | – | – | SRP2196-B05 (antibody, V domains shown) VH: EVQLVESGGGLVQPGGSLRLSCAASGFNITGYYIHWVRQAPGKGLEWVGQISPNSGATYHADSVKGRFTISADTSKNTAYLQMNSLRAEDTAVYYCARDSRRYVRGWDYWGQGTLVTVSS VL: QAVVTQESALTTSPGETVTLTCRSSTGAVTTSNYANWVQEKPDHLFTGLIGGTNKRAPGVPARFSGSLIGDKAALTITGAQTEDEAIYFCALWYSNLWVFGGGTKLTVL | 73 °C
12 | – | – | 180000 M⁻¹ s⁻¹ | 0.00069 s⁻¹ | SRP2196-A06 (antibody, V domains shown) VH: EVQLVESGGGLVQPGGSLRLSCAASGFNITGYYIHWVRQAPGKGLEWVGQISPNSGSTHQADSVKGRFTISADTSKNTAYLQMNSLRAGDTAVYYCARDSRRYVRGWDYWGQGTLVTVSS VL: QAVVTQESALTTSPGETVTLTCRSSTGAVTTSNYANWVQEKPDHLFTGLIGGTNKRAPGVPARFSGSLIGDKAALTITGAQTEDEAIYFCALWYSNLWVFGGGTKLTVL | 70 °C
